Our source for the koff and Kd values is publication PMC12325741 (2025).

Test in all cases: SPR
Assay [1] deals with T1, CK19 (ligand protein of the Biacore assay) (UniProt P08727 1-400).
T1 chain: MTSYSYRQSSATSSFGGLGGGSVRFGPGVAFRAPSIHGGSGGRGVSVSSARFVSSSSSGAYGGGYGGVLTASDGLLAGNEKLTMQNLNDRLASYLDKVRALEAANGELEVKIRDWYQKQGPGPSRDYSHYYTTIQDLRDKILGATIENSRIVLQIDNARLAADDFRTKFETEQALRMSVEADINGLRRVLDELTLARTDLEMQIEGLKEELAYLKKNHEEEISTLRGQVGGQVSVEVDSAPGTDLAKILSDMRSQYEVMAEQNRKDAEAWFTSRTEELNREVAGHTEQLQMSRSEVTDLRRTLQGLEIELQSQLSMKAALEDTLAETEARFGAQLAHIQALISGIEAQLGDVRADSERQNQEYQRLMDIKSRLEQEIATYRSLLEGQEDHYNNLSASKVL

The target in assay [2] is T1, CK19 (ligand protein of the Biacore …).
For assay [3] the target is unchanged.
For assay [4] the target is unchanged.

Read-outs that look alike come from different tables or passages of the source.

B1: NICD2-His (domain or fragment)
chain: VIMAKRKRKHGSLWLPEGFTLRRDASNHKRREPVGQDAVGLKNLSVQVSEANLIGTGTSEHWVDDEGPQPKKVKAEDEALLSEEDDPIDRRPWTQQHLEAADIRRTPSLALTPPQAEQEVDVLDVNVRGPDGCTPLMLASLRGGSSDLSDEDEDAEDSSANIITDLVYQGASLQAQTDRTGEMALHLAARYSRADAAKRLLDAGADANAQDNMGRCPLHAAVAADAQGVFQILIRNRVTDLDARMNDGTTPLILAARLAVEGMVAELINCQADVNAVDDHGKSALHWAAAVNNVEATLLLLKNGANRDMQDNKEETPLFLAAREGSYEAAKILLDHFANRDITDHMDRLPRDVARDRMHHDIVRLLDEYNVTPSPPGTVLTSALSPVICGPNRSFLSLKHTPMGKKSRRPSAKSTMPTSLPNLAKEAKDAKGSRRKKSLSEKVQLSESSVTLSPVDSLESPHTYVSDTTSSPMITSPGILQASPNPMLATAAPPAPVHAQHALSFSNLHEMQPLAHGASTVLPSVSQLLSHHHIVSPGSGSAGSLSRLHPVPVPADWMNRMEVNETQYNEMFGMVLAPAEGTHPGIAPQSRPPEGKHITTPREPLPPIVTFQLIPKGSIAQPAGAPQPQSTCPPAVAGPLPTMYQIPEMARLPSVAFPTAMMPQQDGQVAQTILPAYHPFPASVGKYPTPPSQHSYASSNAAERTPSHSGHLQGEHPYLTPSPESPDQWSSSSPHSASDWSDVTTSPTPGGAGGGQRGPGTHMSEPPHNNMQVYA
On to B1, for which the koff in assay [1] is 0.0854 s⁻¹. Besides, the Kd in assay [2] came out at 635 nM.

B2: MANF (analyte of the Biacore assay) (natural protein)
chain: LRPGDCEVCISYLGRFYQDLKDRDVTFSPATIENELIKFCREARGKENRLCYYIGATDDAATKIINEVSKPLAHHIPVEKICEKLKKKDSQICELKYDKQIDLSTVDLKKLRVKELKKILDDWGETCKGCAEKSDYIRKINELMPKYAPKAASARTDL
With B2, in assay [3], binding was characterised by a dissociation constant (Kd) of 214 nM. The molecule further had a koff in assay [4] of 0.0117 s⁻¹.

By koff is commonly meant the rate constant with which the complex falls apart. One may read the Kd as the equilibrium constant for the complex coming apart.
